Experimental data taken from paper PMC4172982.
pKd: −log10 of the molar value.

Legend:
CaM = CaM (UniProt P0DP23); assay: SPR; conditions: cited from earlier work
G-actin = G-actin (UniProt P60709); conditions: cited from earlier work
F-actin = F-actin (UniProt P60709); conditions: cited from earlier work
[1] = molecular target: 26S proteasome from BALB/c mouse (mouse (endogenous in BALB/c brain)) (UniProt O35226)
Sequence of UniProt O35226 (O35226 whole entry, looked up): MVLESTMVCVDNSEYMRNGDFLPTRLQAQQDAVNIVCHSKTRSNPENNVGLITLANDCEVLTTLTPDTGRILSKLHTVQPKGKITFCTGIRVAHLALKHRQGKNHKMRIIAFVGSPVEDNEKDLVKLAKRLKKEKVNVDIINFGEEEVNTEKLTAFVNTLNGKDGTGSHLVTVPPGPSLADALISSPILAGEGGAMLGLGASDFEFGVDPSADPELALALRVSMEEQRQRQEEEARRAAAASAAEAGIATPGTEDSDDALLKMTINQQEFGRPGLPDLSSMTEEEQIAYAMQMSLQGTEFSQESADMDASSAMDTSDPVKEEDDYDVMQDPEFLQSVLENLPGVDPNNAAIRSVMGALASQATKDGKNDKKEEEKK

MBP (from UniProt P04370)
pKd (CaM): 6.70

MBP (from UniProt P81558)
pKd (CaM): 6.83

MBP (from UniProt P02686)
pKd (G-actin): 7.18 | pKd (F-actin): 7.19

Histone H1.3 human, recombinant (from UniProt P16402 1-221) (natural protein)
theoretical KD estimated from the inhibition curve of 26S-mediated MBP hydrolysis, assuming that bound 26S proteasome cannot degrade MBP (blocks m1 with m2) [1]: 1000 nM
